Measured values as given in the supplement of paper PMC12042874.
± gives the uncertainty stated by the source.

Test: amyloid nucleation score (Sup35N fusion, yeast selection) (log enrichment); library NNK1; higher = more nucleation; inactive = no reads after selection
Outline: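 DiMSum was used to calculate nucleation scores as log enrichment of output over input reads, centred on the mode score of non-aggregating sequences. Sequences with fewer than 100 input reads were not scored. Input and output came from Illumina sequencing of plasmid inserts in psi-negative yeast expressing peptides of 20 random codons fused to Sup35N, induced 24 hours with 100 μM copper sulfate and then grown 7 days at 30°C on medium lacking adenine and uracil.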

Substance | amyloid nucleation score
CYVNLTFPVLVEACTASFTD | 6.722 ± 0.055
DAEFRHDSGYEVHHQKLVFF | 2.91 ± 0.19
DAMRGLPFYQYMHHMGNGYW | -0.083 ± 1.4
DANNIRLDDSFELRWCKNVC | -1.36 ± 0.91
DASIIPYMNMFIMLTSLA | -0.889 ± 1.7
DCGAWGHTLVSWSKYLGKSF | 3.64 ± 0.092
DCGDNRLTTEGQKSSSPVAD | 0.378 ± 0.3
DCTEH | inactive
DCVSHAGQRGIMCRSGSLRF | -0.138 ± 0.64
DDGGLSFGSGNSQSSKKIWL | 0.853 ± 0.42
DDKSFQ | 0.614 ± 0.37
DDMVDVPFTMVGMWPYDSY | -0.381 ± 0.3
DDQKIRRY | 0.602 ± 0.34
DDSHVSCDYTLYGWSFGYMC | 2.37 ± 0.1
DDVMSKVPCVTTYSVVLLMR | 0.83 ± 0.78
DEGRDLILISLAHRTSRIDP | 1.29 ± 0.26
DETWLSLQVNLLLFYSRMDM | -0.153 ± 0.66
DFAYMSVLWIVVMLRGFLVK | 0.639 ± 0.45
DFDNEGLWCS | -0.217 ± 0.42
DFFLIFWWDSFSAGVCQMNS | 0.356 ± 0.51
DFNHYDRSSW | 2.45 ± 0.18

Substance | amyloid nucleation score
DFSCGRMGFALERSLAMYRA | 0.041 ± 0.53
DFYADIASVMSVPILCSLLG | inactive
DFYLT | -0.257 ± 1.4
DFYLWPGMFSKYLGLNATLS | -0.604 ± 0.57
DFYYNALIREVGQ | -0.825 ± 0.75
DGASMSKRPPRVILKLGIFD | 0.054 ± 0.33
DGFKAALICAIANY | 0.397 ± 0.3
DGLRCIGCIGNTGDWNS | 6.86 ± 0.085
DGSYTWWAFGSIQRCEGLTV | 0.177 ± 0.47
DIFRIYMWVHCMDRHSDGTV | 2.29 ± 0.27
DIIVFSVLFLVTLDGDLWC | 0.476 ± 0.97
DISRMMSISRLFFYNNVLFT | -0.524 ± 0.44
DKNML | 1.44 ± 0.54
DKRECFGLDLEIWSMVVWMW | 0.611 ± 0.8
DKRIARLNPRIGTSVSWDVS | 0.89 ± 0.5
DLCQEPIG | -0.379 ± 0.3
DLEGMPELARDVGAKI | -0.825 ± 0.98
DLEIAGREGS | -0.322 ± 0.55
DLFSTVFNWMTNCPFKNSW | -0.32 ± 0.49
DLIGFSWGTIEWLRA | -0.931 ± 0.64
DLRKAGGWHRVIC | 0.111 ± 0.56

Substance | amyloid nucleation score
DLRSSGFDTELILQVSVQLL | -0.264 ± 0.59
DLTCWLLFFNLLYSI | 0.492 ± 0.33
DLTVRPACAGCRLYSEVILD | -0.852 ± 1.6
DLYSGSSFPEISGETSGYIP | 0.06 ± 0.49
DMIDSGGNALHSSQAHNYRR | 1.08 ± 0.37
DMMAIGSTTVCLVLRFFGKM | -0.929 ± 2.7
DMSFRYLSGSVNLCVVHLRR | -0.244 ± 1.1
DMTWNKQHFYGCSISYRSGT | 5.99 ± 0.086
DNDPMYYADSIEECF | inactive
DNGCDEVCWELVFEFVD | 0.562 ± 0.39
DNGFSTQA | -0.11 ± 0.82
DNKGYL | -0.977 ± 1
DNTGQVRIW | -0.562 ± 0.62
DNTIYDSMCFDAGNPDLCIH | 0.439 ± 0.23
DRCVQCTALTASTGR | -0.113 ± 0.94
DRFRRTNAIGLVHMDSGKG | 0.907 ± 0.39
DRPTFKLVFTMKLVSLVTSL | inactive
DSEKGSVLYLVMRGMNCVSI | 4.69 ± 0.052
DSFVRT | inactive
DSGCRTRVTLSRGFYRTFSS | 1.2 ± 0.6
DSGTLDQYH | 0.157 ± 0.86

Substance | amyloid nucleation score
DSLFTIYMNSISFR | 5.83 ± 0.093
DSLWLRYVFMRTVLLMVHVR | inactive
DSMKMIILVDVGRNHGLGHR | 3.32 ± 0.16
DSRGHGEPRRTWEW | -0.006 ± 0.58
DSSRTLFCRAHWGSRFNGRG | -1.69 ± 2.4
DSSSYICSLSSPYSWSISFF | 7.366 ± 0.07
DSTRTDSLYVSACHLLYLAE | 0.178 ± 0.64
DSWEYFLP | -0.375 ± 0.53
DTCYHINIGKTQSADQRDCT | 0.219 ± 0.25
DTGSFFVSVRLSAWVIPPCK | -0.063 ± 0.39
DTKCMMENRAIVMFCIQGKH | 0.827 ± 0.3
DTLIFVLREVTLLNDAGVSS | 0.646 ± 0.42
DTSSACLCNRDRSDLLVCRV | inactive
DVFVY | -0.273 ± 0.45
DVFYVILNVSLVCSVPFLSA | -0.179 ± 0.72
DVLLPSLTEVAINFSSVTLK | -0.242 ± 0.41
DVLLSFEYLD | inactive
DVREITCLSHKRTRHQVHPV | 0.07 ± 1.2
DVRRYSGLNRAMKLRWGSCA | 0.193 ± 0.79
DVVFGFLGVGKLIGVDTMRR | -0.725 ± 0.9
DVYKKIFLRLNCYQVSMRIE | -0.697 ± 0.27
